The values below come from patent US20140363428A1 (Chugai, published 2014).

Positions count from the first letter of the chain named. Numbers in names are those of the source.

Usually Kd stands for the concentration at which binding is half-saturated. A high value points to lower affinity.

B1: Fv-4-F1094 (antibody)
heavy: QVQLQESGPGLVKPSETLSLTCAVSGHSISHDHAWSWVRQPPGEGLEWIGFISYSGITNYNPSLQGRVTISRDNSKNTLYLQMNSLRAEDTAVYYCARSLARTTAMDYWGEGTLVTVSSASTKGPSVFPLAPSSKSTSGGTAALGCLVKDYFPEPVTVSWNSGALTSGVHTFPAVLQSSGLYSLSSVVTVPSSSLGTQTYICNVNHKPSNTKVDKKVEPKSCDKTHTCPPCPAPELLGGPSVFLFPPKPKDTLYISRTPEVTCVVVDVSHEDPEVKFNWYVDGVEVHNAKTKPREEQYNSTYRVVSVLTVLHQDWLNGKEYKCKVSNKALPAPIEKTISKAKGQPREPQVYTLPPSRDELTKNQVSLTCLVKGFYPSDIAVEWESNGQPENNYKTTPPVLDSDGSFFLYSKLTVDKSRWQQGNVFSCSVMHEALHYHYTQKSLNLSP
light: DIQMTQSPSSLSASVGDSVTITCQASTDISSHLNWYQQKPGKAPELLIYYGSHLLSGVPSRFSGSGSGTDFTFTISSLEAEDAATYYCGQGNRLPYTFGQGTKVEIERTVAAPSVFIFPPSDEQLKSGTASVVCLLNNFYPREAKVQWKVDNALQSGNSQESVTEQDSKDSTYSLSSTLTLSKADYEKHKVYACEVTHQGLSSPVTKSFNRGEC
B2: Fv-4-F1081 (antibody, human IgG1, kappa)
heavy: B1 heavy with Y438N, Q440T, N444S
light: B1 light
notes: additional N-glycosylation found (++)
B3: Fv-4-F1095 (antibody, human IgG1, kappa)
heavy: B1 heavy with S385N, G387S, N444S
light: B1 light
B4: Fv-4-F1077 (antibody, human IgG1, kappa)
heavy: B1 heavy with K250N, N444S
light: B1 light
notes: as for B2
B5: Fv-4-F1079 (antibody, human IgG1, kappa)
heavy: B1 heavy with E384N, N386S, N444S
light: B1 light
B6: Fv-4-F1082 (antibody, human IgG1, kappa)
heavy: B1 heavy with Q440N, N444S
light: B1 light
notes: additional N-glycosylation found (+)
B7: Fv-4-F1096 (antibody, human IgG1, kappa)
heavy: B1 heavy with Q388T, N444S
light: B1 light
B8: Fv-4-F1083 (antibody)
heavy: B1 heavy with S442N, N444S
light: B1 light
B9: Fv-4-F11 (antibody, human IgG1, kappa)
heavy: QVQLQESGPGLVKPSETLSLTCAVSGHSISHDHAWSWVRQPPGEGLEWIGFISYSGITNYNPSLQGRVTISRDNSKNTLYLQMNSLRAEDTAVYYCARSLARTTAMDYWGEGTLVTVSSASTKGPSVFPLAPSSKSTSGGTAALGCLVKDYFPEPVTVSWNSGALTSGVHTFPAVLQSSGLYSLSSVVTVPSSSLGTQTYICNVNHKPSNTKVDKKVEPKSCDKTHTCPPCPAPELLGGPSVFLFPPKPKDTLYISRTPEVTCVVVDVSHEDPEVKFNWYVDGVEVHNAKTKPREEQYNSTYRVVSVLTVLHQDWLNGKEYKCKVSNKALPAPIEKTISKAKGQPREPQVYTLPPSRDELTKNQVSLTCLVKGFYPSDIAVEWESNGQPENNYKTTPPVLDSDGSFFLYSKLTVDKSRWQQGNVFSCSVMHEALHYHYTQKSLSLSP
light: B1 light
notes: M252Y/N434Y (EU)
B10: Fv-4-F1080 (antibody, human IgG1, kappa)
heavy: B1 heavy with S426N, N444S
light: B1 light
notes: as for B2
B11: Fv-4-F1078 (antibody, human IgG1, kappa)
heavy: B1 heavy with E382N, E384S, N444S
light: B1 light
B12: F1670 (antibody)
heavy: B1 heavy with L237R, S241K, Y254M, Y438V, Q440R, S442E, N444S
light: B1 light
B13: F1751 (antibody)
heavy: B1 heavy with L237R, S241K, Y254M, Y438T, Q440K, S442D, N444S
light: B1 light
B14: F1750 (antibody)
heavy: B1 heavy with L237R, S241K, Y254M, Y438T, Q440K, S442E, N444S
light: B1 light
B15: F1757 (antibody)
heavy: B1 heavy with Y254M, Y438T, Q440R, S442D, N444S
light: B1 light
B16: F1715 (antibody)
heavy: B1 heavy with L237R, S241K, Y254M, H435D, Y438V, Q440R, S442D, N444S
light: B1 light
B17: F1720 (antibody)
heavy: B1 heavy with Y254M, Y438V, Q440K, S442E, N444S
light: B1 light
B18: F1756 (antibody)
heavy: B1 heavy with Y254M, Y438T, Q440R, S442E, N444S
light: B1 light
B19: F1714 (antibody)
heavy: B1 heavy with L237R, S241K, Y254M, H435D, Y438V, Q440R, S442E, N444S
light: B1 light
B20: F1724 (antibody)
heavy: B1 heavy with Y254M, H435D, Y438V, Q440K, S442E, N444S
light: B1 light
B21: F1753 (antibody)
heavy: B1 heavy with L237R, S241K, Y254M, H435D, Y438T, Q440R, S442D, N444S
light: B1 light
B22: F1763 (antibody)
heavy: B1 heavy with Y254M, H435D, Y438T, Q440K, S442D, N444S
light: B1 light
B23: F1759 (antibody)
heavy: B1 heavy with Y254M, Y438T, Q440K, S442D, N444S
light: B1 light
B24: F1719 (antibody)
heavy: B1 heavy with Y254M, Y438V, Q440R, S442D, N444S
light: B1 light
B25: F1749 (antibody)
heavy: B1 heavy with L237R, S241K, Y254M, Y438T, Q440R, S442D, N444S
light: B1 light
B26: F1752 (antibody)
heavy: B1 heavy with L237R, S241K, Y254M, H435D, Y438T, Q440R, S442E, N444S
light: B1 light
B27: F1681 (antibody)
heavy: B1 heavy with L237R, S241K, Y254M, Y438T, Q440R, S442E, N444S
light: B1 light
B28: F1725 (antibody)
heavy: B1 heavy with Y254M, H435D, Y438V, Q440K, S442D, N444S
light: B1 light
B29: F1754 (antibody)
heavy: B1 heavy with L237R, S241K, Y254M, H435D, Y438T, Q440K, S442E, N444S
light: B1 light
B30: F1712 (antibody)
heavy: B1 heavy with L237R, S241K, Y254M, Y438V, Q440K, S442E, N444S
light: B1 light
B31: F1758 (antibody)
heavy: B1 heavy with Y254M, Y438T, Q440K, S442E, N444S
light: B1 light
B32: F1716 (antibody)
heavy: B1 heavy with L237R, S241K, Y254M, H435D, Y438V, Q440K, S442E, N444S
light: B1 light
B33: F1761 (antibody)
heavy: B1 heavy with Y254M, H435D, Y438T, Q440R, S442D, N444S
light: B1 light
B34: F1675 (antibody)
heavy: B1 heavy with L237R, S241K, Y254M, H435D, Y438V, N444S
light: B1 light
B35: F1683 (antibody)
heavy: B1 heavy with L237R, S241K, Y254M, Y438F, Q440R, S442E, N444S
light: B1 light
B36: F1718 (antibody)
heavy: B1 heavy with Y254M, Y438V, Q440R, S442E, N444S
light: B1 light
notes: S440F as printed
B37: F1723 (antibody)
heavy: B1 heavy with Y254M, H435D, Y438V, Q440R, S442D, N444S
light: B1 light
B38: Fv-4-F1232 (antibody)
heavy: B1 heavy with Y438V, Q440K, S442D, N444S
light: B1 light
B39: Fv-4-F1231 (antibody)
heavy: B1 heavy with Y438V, Q440K, S442E, N444S
light: B1 light

T1 sequence (P55899 24-297 limits assumed, chain 1 of 2): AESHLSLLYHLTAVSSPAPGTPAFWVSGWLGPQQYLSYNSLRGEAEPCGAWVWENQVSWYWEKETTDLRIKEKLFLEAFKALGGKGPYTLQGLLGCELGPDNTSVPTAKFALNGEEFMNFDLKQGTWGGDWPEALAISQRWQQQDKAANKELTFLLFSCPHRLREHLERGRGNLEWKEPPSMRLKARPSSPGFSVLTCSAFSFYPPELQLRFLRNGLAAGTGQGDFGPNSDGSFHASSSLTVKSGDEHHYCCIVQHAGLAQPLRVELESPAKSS
T1 sequence (P61769 21-119 limits assumed, chain 2 of 2): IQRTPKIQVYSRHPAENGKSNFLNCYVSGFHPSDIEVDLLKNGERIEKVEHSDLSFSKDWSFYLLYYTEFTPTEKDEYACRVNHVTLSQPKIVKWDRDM

The first test has as its target T1, soluble human FcRn (human, UniProt P55899 24-297; P61769 21-119).
T1 construct: Heterodimer of alpha chain and beta2-microglobulin; also called hFcRn
Put plainly: SPR (Biacore), pH 7.0. For orientation: Surface plasmon resonance follows binding to a sensor surface in real time, without labels.
Consider B1, for which the Kd turned out to be 260 nM.

Turning to B2, the Kd amounted to 620 nM. On the same count and under the same terms, the value for B3 was 290 nM; that for B4 was 2000 nM. Turning to B5, binding was characterised by a dissociation constant (Kd) of 340 nM.

In turn, B6 registered a Kd of 280 nM.

The molecule B7 had a Kd of 270 nM.

Turning to B8, the Kd was determined as 350 nM. Same read-out and setting: the value for B9 was 330 nM; that for B10 was 320 nM.

B11 came in with a Kd of 470 nM.

A further test concerns the target T1, soluble human FcRn. Put plainly: SPR (Biacore), pH 6.0.
B12 gave a Kd of 64 nM. Still for that read-out and setting: then B13, with 69 nM. In turn, B14 returned a Kd of 70 nM. This Kd and that of the molecule before are within 1.5-fold of each other. Same read-out and setting: the value for B15 was 72 nM; that for B16 was 110 nM; that for B17 was 45 nM. Same read-out and setting: the value for B18 was 80 nM. Same read-out and setting: then B19, with 110 nM; and B20, with 99 nM. For the molecule B21, the Kd amounted to 130 nM.

B22 gave a dissociation constant Kd of 110 nM. Regarding B23, binding was put at a Kd of 63 nM.

For the molecule B24, the Kd came to 52 nM. Turning to B25, the Kd is 87 nM. Compared with the last molecule, the Kd is about 1.7-fold higher. On the same count and under the same terms, then B26, with 150 nM; and B27, with 84 nM; and B28, with 93 nM. Still for that read-out and setting: then B29, with 120 nM; and B30, with 55 nM.

Regarding B31, binding was characterised by a dissociation constant (Kd) of 70 nM. In turn, B32 came in with a Kd of 96 nM. With B33, the Kd was 130 nM. Still for that read-out and setting: the value for B34 was 97 nM; that for B35 was 57 nM; that for B36 was 61 nM. Consider B37, for which binding was characterised by a dissociation constant (Kd) of 96 nM. Against the preceding molecule, the Kd is about 1.6-fold higher.

A further test addresses T1, soluble human FcRn. The test is described as follows: SPR (Biacore), pH 7.0. The source holds these as a separate data set.
Molecule B38 returned a Kd of 97.9 nM. B39 came in with a Kd of 97.3 nM.
